Data taken from patent US20070248589A1 (GOVERNMENT OF THE UNITED STATES OF AMERICA AS REPRESENTED …, published 2007).
Each block holds one molecule with its values, some of them ahead of it.

Experiments:
293T cells [1] = test: Propidium iodide staining for apoptosis; type: cell-based, human; details: 24 to 72 hours after transfection
From the text: Propidium iodide is a commonly known fluorescent compound, which intercalates into double-stranded nucleic acids. It is excluded by viable cells but can penetrate cell membranes of dying or dead cells. Thus, apoptotic cells may be identified by staining (and, in particular, nuclear staining) with propidium iodide.
Approximately 0.5-1.0×10^6 293T cells were transfected with SPATIAL-EGFP using either calcium phosphate (Mammalian Transfection Kit; Stratagene, La Jolla, Calif.) or Lipofectanine (Invitrogen, Rockville, Md.) in accordance with the manufacturers' instructions. Twenty-four (24) to 72 hours after transfection, the transfected cells were sorted. Approximately 1-5×10^5 sorted cells were resuspended in a solution contain 50 μg/ml propidium iodine, 0.1% sodium citrate and 0.1% Triton X-100 and incubated overnight to lyse the cells and stain the nuclei. Then, the sample was analyzed by flow cytometry to identify sub-diploid amounts of DNA which indicates cell death via apoptosis.

caspase = test: Caspase activation flow cytometry assay (PhiPhi Lux); type: cell-based; details: SPATIAL-EGFP transfected cells
From the text: Caspase activation plays a central role in the execution of apoptosis (e.g., Budihardjo et al., Ann. Rev. Cell. Dev. Biol., 15:269-90, 1999).

Hb12 cells = test: Bcl-2 expression assay, SPATIAL-EGFP transfected Bcl-2 expressing thymocyte cell line; type: cell-based, mouse; details: transient transfection by electroporation
Experimental: (§1) The mouse thymocyte cell line Wehi 7.2 and its variant Wbcl-2, which over expresses bcl-2, were maintained in DMEM supplemented with 10% heat-inactivated FBS, 2 mM glutamine, 100 U/ml penicillin, and 0.1 mg/ml streptomycin. Cells were grown at 37° C. in a humidified atmosphere with 5% CO2.
(§2) Transient transfections were performed using either lipids (Lipofectamine 2000 or FreeStyle 293 Expression System, each supplied by Invitrogen, Rockville, Md.) or calcium phosphate (Mammalian Transfection Kit; Stratagene, La Jolla, Calif.) or electroporation. Manufacturer instructions were followed for lipid and calcium phosphate transfections. For electroporation, the following procedure was used: Before transfection, Wehi cell and Wbcl-2 cells were counted and suspended in fresh complete DMEM without antibiotics at 5×10^5 cells/ml in a 15 cm dish. On the day of transfection, the cells were washed with PBS twice and were suspended in serum free DMEM at 6.25×10^6 cells/mL Aliquots of 800 μl cell suspension were transferred to a 4 mm electroporation cuvette and 10 μg of plasmid DNA solution was added. After 10 minutes incubation on ice, the cells were electroporated under the condition of 310 V, 725 ohms resistance, and 1050 μF capacitance. The transfected cells were incubated on ice for 10 minutes and suspended in complete DMEM in 10 cm dishes at the density of 7.5×10^4 viable cells/ml. […]

293T cells [2] = test: Cell growth analysis: number of fluorescent (EGFP-positive) cells after transient transfection; type: cell-based, human
Experimental: Human embryonic kidney (293T) cells were maintained in DMEM supplemented with 10% heat-inactivated FBS, 2 mM glutamine, 100 U/ml penicillin, and 0.1 mg/ml streptomycin Cells were grown at 37° C. in a humidified atmosphere with 5% CO2.
The day before transfection, the cells were trypsinized (if needed), counted and plated in a 24-well plate at the density of 7.5×10^4 cells per well with 0.5 ml of their normal growth medium containing serum without antibiotics. On the day of transfection, cells were transfected according to the recommended protocol using 1.0 μg of each plasmid DNA and 3 μl of Lipofectamine 2000 in each well. The cells were kept at 37° C. in a CO2 incubator for 24 hours. […] The number of EGFP-positive cells was calculated using fluorescence-activated cytometry (FACS) analysis at various time points after transfection.
In representative experiments, approximately 0.5-1×10^6 293T cells were transiently transfected with approximately 1-10 μg of either SPATIAL EGFP expression vector or EGFP expression vector by calcium phosphate precipitation using the Mammalian Transfection Kit (Stratagene) in accordance with the manufacturer's instructions. The number of fluorescent EGFP- or SPATIAL-EGFP-transfected cells was monitored over time using flow cytometry or microscopic examination. […]

Wehi7.2 cells = test: Bcl-2 expression assay, SPATIAL-EGFP transfected thymocyte cell line; type: cell-based, mouse; details: transient transfection by electroporation
Experimental: as §1, §2

293T cells [3] = test: DiI cell division analysis by FACS; type: cell-based, human; details: 4-day period, FIG. 7
Experimental: 293T cells were transfected with expression plasmid for EGFP alone (pEGFPN1; Clontech) or EGFP-SPATIAL(L). Twenty four (24) hours later, transfected cells were reacted with 3H-Indolium, 2-[3(1,3-dihydro-3,3-dimethyl-1-octacdecyl-2H-indol-2-ylidene)-propenyl]-3,3-dimethyl-octacdecyl-, perchlorate (DiI; Molecular Probes, Eugene, Oreg.) a fluorescent compound that […] binds to lipids. EGFP-positive and/or EGFP-negative cells were analyzed by FACS on the day after transfection and 1 hour after DiI labeling (Day 0) and four days after transfection (Day 4) as indicated.
To directly examine division of SPATIAL EGFP transfected cells, the lipophilic dye, 3H-Indolium, 2-[3-(1,3-dihydro-3,3-dimethyl-1-octacdecyl-2H-indol-2-ylidene) 1-propenyl]-3,3-dimethyl-1-octacdecyl-, perchlorate (DiI). DiI becomes highly fluorescent when it interacts with cell membranes and is equally portioned to each daughter cell during cell division. This property has been used to monitor cell divisions based on the reduction of dye in successive generations, which can be monitored using FACS analysis (Huang et al., Blood, 94(8):2595-2604, 1999). DiI was chosen so that the generational analysis could be done on EGFP-positive cells.

GST-SPATIAL(L) = target: T1, GST-SPATIAL(L) (Mus musculus, UniProt Q7TSD4); test: GST pulldown assay with GST-SPATIAL long isoform; type: binding; details: 35S-methionine labeled in vitro translated protein
T1 construct: made in house
T1 sequence (Q7TSD4 with tags, fused parts or gaps isoform Q7TSD4-6 limits assumed): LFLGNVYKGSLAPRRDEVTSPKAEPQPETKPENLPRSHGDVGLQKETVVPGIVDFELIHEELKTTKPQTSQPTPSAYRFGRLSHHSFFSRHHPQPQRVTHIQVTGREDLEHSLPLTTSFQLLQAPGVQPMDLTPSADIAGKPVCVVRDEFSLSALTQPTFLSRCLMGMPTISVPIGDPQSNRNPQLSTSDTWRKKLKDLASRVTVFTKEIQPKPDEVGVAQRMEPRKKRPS
Experimental: Eighteen cDNA clones identified in the yeast two-hybrid system were tested in an in vitro glutathione-S-transferase (GST) pulldown assay, as described in Ausubel et al., Current Protocols in Molecular Biology, Greene Publishing Associates, updated November 2003, Chapter 20, Analysis of Protein Interactions, Unit 20.2, Affinity Purification of Proteins Binding to GST Fusion Proteins.
Briefly, a GST-SPATIAL fusion construct was produced by cloning SPATIAL cDNA(s) into pGEx5X1 expression vector using standard molecular cloning techniques. GST or GST-SPATIAL fusion protein were expressed in 1-1000 ml bacterial cultures grown for 3-4 hours until OD600 reached 0.5. Then, plasmid expression was induced for 1.5-4 hours by the addition of ITPG to a final concentration of 0.11 mM. GST or GST-fusion proteins were purified using glutathione-Sepharose beads as described in Ausubel et al., Current Protocols in Molecular Biology, Greene Publishing Associates, updated November 2003, Chapter 20, Analysis of Protein Interactions, Unit 20.2, Affinity Purification of Proteins Binding to GST Fusion Proteins.
A coupled in vitro transcription and translation system (Promega) was used according to the manufacturer's instructions to produce radiolabeled protein from cDNAs to be tested. Radiolabeled proteins were mixed with either purified GST or GST-SPATIAL. Then, GST-containing protein complexes were purified by centrifugation from the reaction mixtures using glutathione-coated Sepharose beads. Bound proteins were eluted from the beads with SDS-PAGE loading buffer heated to 72-85° C., separated on polyacrylamide gels, and visualized by autoradiography. Specific interactions between GST-SPATIAL and in vitro translated proteins were indicated by the presence of a radiolabeled in vitro translated protein in the GST-SPATIAL-containing samples, but not in the GST-alone samples.
GST pulldown assays were performed as described in Example 9 using GST-SPATIAL(L) and GST-SPATIAL(S) and each of the Uba3 mutants described in this example.

HA-tagged SPATIAL = target: T2, HA-tagged SPATIAL (Mus musculus, UniProt Q7TSD4); test: Co-immunoprecipitation of SPATIAL and Uba3 from transfected 293T cells; type: binding; details: only in samples that contained HA-tagged SPATIAL, FIG. 15
T2 construct: expressed in transfected cells; host or cells: 293T human kidney epithelial cells, calcium phosphate transfection
T2 sequence (Q7TSD4 with tags, fused parts or gaps isoform Q7TSD4-6 limits assumed): T1 sequence (Q7TSD4 with tags, fused parts or gaps isoform Q7TSD4-6 limits assumed)
T2 sequence (Q8C878 224-462 P243X partner limits assumed): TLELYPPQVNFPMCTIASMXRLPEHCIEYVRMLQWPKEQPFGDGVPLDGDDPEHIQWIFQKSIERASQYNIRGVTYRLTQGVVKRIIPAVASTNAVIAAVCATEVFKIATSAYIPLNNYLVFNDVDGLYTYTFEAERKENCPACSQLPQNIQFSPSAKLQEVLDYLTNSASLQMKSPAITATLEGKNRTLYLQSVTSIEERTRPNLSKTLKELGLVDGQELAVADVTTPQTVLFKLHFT
Experimental: Expression vectors encoding Myc-346 and HA-tagged SPATIAL were transfected alone or in combination into 293T cells by calcium phosphate precipitation (Mammalian Transfection Kit; Stratagene, La Jolla, Calif.) in accordance with manufacturer's instructions. Total protein lysates were prepared and immunoprecipitated with an anti-HA antibody, as described in Ausubel et al., Current Protocols in Molecular Biology, Greene Publishing Associates, updated November 2003, Chapter 20, Analysis of Protein Interactions, Unit 20.5, Detection of Protein-Protein Interaction by Coprecipitation. The immunoprecipitated proteins were separated by SDS-PAGE and transferred to a membrane for Western blotting using an anti-Myc antibody.

- caspase activation (caspase): No caspase activation was detected
B1: SPATIAL-EGFP: SPATIAL isoform fused to enhanced green fluorescent protein, expressed from pEGFPN1 (protein)
chain: T1 sequence (Q7TSD4 with tags, fused parts or gaps isoform Q7TSD4-6 limits assumed)
modifications: left off: large carriers
notes: SPATIAL isoform fused to enhanced green fluorescent protein, expressed from pEGFPN1
- apoptosis based on nuclear morphology of propidium iodide stained cells (293T cells [1]): no evidence of apoptosis
- cell growth of transfected cells (Hb12 cells): profound suppression of cell growth
- increase in the number of fluorescent cells (293T cells [2]; four day period post-transfection, FIG. 6): no increase
- increase in the number of fluorescent transfected cells (293T cells [2]; two-week period post-transfection, G418 selection): 2-3 fold
- cell growth of transfected cells (Wehi7.2 cells): profound suppression of cell growth
- cell division of EGFP-positive cells (293T cells [3]): effectively blocked the majority of transfected cells from dividing

- interaction with GST-SPATIAL(L) (GST-SPATIAL(L)): specifically interacted
- co-immunoprecipitation by anti-HA antibody (HA-tagged SPATIAL): reproducibly immunoprecipitated
B2: Myc-346: Myc-tagged Uba3-clone 346, carboxyl terminus of Uba3, residues 203 to 441 of SEQ ID NO: 6 (protein, listed as Mus musculus)
chain: TLELYPPQVNFPMCTIASMPRLPEHCIEYVRMLQWPKEQPFGDGVPLDGDDPEHIQWIFQKSIERASQYNIRGVTYRLTQGVVKRIIPAVASTNAVIAAVCATEVFKIATSAYIPLNNYLVFNDVDGLYTYTFEAERKENCPACSQLPQNIQFSPSAKLQEVLDYLTNSASLQMKSPAITATLEGKNRTLYLQSVTSIEERTRPNLSKTLKELGLVDGQELAVADVTTPQTVLFKLHFT
modifications: not fully specified (N-terminus); also: Myc tag
